Patent publication US20250076311A1 (Chugai, published 2025)
Where a chain is given by its changes, count along the chain named.

Columns and labels:
[1] = biological target: T1, human FcγRIIaR extracellular domain with C-terminal His-tag (human, UniProt P12318 34-217); assay: SPR (Biacore), antibody captured, FcgR analyte
T1 construct: also called human FcgRIIaR; FcγRIIa (type R)
T1 chain: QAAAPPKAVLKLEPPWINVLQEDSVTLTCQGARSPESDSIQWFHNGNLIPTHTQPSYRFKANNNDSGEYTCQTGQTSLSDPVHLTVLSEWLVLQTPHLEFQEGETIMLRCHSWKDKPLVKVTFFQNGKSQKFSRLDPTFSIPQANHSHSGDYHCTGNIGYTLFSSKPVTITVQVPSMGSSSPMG
Method: (§1) The kinetic analysis of interactions between these antibodies and FcγR was carried out using BIACORE® T200 or BIACORE® 4000 (GE Healthcare). HBS-EP+ (GE Healthcare) was used as the running buffer, and the measurement temperature was set to 25° C. […] After the measurement, the antibody captured on the chip was washed off by allowing reaction with 10 mM glycine-HCl, pH1.5 and 25 mM NaOH so that the chip was regenerated and used repeatedly. The sensorgrams obtained as measurement results were analyzed by the 1:1 Langmuir binding model using the BIACORE® Evaluation Software to calculate the binding rate constant ka (L/mol/s) and dissociation rate constant kd (1/s), and the dissociation constant KD (mol/L) was calculated from these values. […] Regarding such interactions, KD values were calculated using the following 1:1 binding model described in BIACORE® T100 Software Handbook BR1006-48 Edition AE.

[2] = biological target: T2, cynomolgus monkey FcγRIIIaS extracellular domain with C-terminal His-tag (cynomolgus monkey, UniProt Q8SPW2 21-206 at identity 1.00)); assay: SPR (Biacore), KD of SG1 / KD of variant
T2 construct: also called cyno FcgRIIIaS; cynoFcγRIIIaS
T2 chain: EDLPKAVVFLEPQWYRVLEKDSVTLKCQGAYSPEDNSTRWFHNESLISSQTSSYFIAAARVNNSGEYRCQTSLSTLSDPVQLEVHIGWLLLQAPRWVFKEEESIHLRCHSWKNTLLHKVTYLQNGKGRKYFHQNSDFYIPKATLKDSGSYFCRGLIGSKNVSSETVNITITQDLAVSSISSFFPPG

[3] = biological target: T3, human FcγRIIaH extracellular domain with C-terminal His-tag (human, UniProt P12318 34-217); assay: SPR (Biacore), KD of SG1 / KD of variant
T3 construct: also called human FcgRIIaH; FcγRIIa (type H)
T3 sequence: T1 chain with R134H

[4] = biological target: T4, human FcγRIIIaV extracellular domain with C-terminal His-tag (human, UniProt P08637 17-208); assay: SPR (Biacore), antibody captured, FcgR analyte
T4 construct: also called human FcgRIIIaV
Method: as §1

[5] = biological target: T4, human FcγRIIIaV extracellular domain …; assay: SPR (Biacore), KD of SG1 / KD of variant
[6] = biological target: T5, cynomolgus monkey FcγRIIa2 extracellular domain with C-terminal His-tag (cynomolgus monkey); assay: SPR (Biacore), KD of SG1 / KD of variant
T5 construct: also called cyno FcgRIIa2; cynoFcγRIIa2
T5 chain: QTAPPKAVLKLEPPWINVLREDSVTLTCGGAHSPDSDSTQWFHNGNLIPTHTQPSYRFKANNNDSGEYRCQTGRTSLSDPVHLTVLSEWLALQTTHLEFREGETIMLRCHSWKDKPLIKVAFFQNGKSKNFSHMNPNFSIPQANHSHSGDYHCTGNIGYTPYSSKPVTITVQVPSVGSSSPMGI

[7] = biological target: T2, cynomolgus monkey FcγRIIIaS …; assay: SPR (Biacore), antibody captured, FcgR analyte
Method: as §1

[8] = biological target: T6, human FcγRIIaH extracellular domain, His-tagged (human, UniProt P12318 34-217); assay: SPR (BIACORE), antibody captured, FcγR analyte, 25 C; KD of SG1 divided by KD of variant
T6 construct: also called human FcγRIIa (type H); FcgRIIaH
T6 sequence: T1 chain with R134H
Method: as §1

[9] = biological target: T7, cynomolgus monkey FcγRIIIaS extracellular domain, His-tagged (cynomolgus monkey, UniProt Q8SPW2 21-206 at identity 1.00)); assay: as above
T7 construct: also called cyno FcγRIIIaS; cynoFcgRIIIaS
T7 chain: T2 chain
Method: as §1

[10] = biological target: T3, human FcγRIIaH extracellular domain …; assay: SPR (Biacore), antibody captured, FcgR analyte
Method: as §1

[11] = biological target: T8, cynomolgus monkey FcγRIIb extracellular domain, His-tagged (cynomolgus monkey); assay: SPR (BIACORE), antibody captured, FcγR analyte, 25 C; KD of SG1 divided by KD of variant
T8 construct: also called cyno FcγRIIb; cynoFcgRIIb
T8 chain: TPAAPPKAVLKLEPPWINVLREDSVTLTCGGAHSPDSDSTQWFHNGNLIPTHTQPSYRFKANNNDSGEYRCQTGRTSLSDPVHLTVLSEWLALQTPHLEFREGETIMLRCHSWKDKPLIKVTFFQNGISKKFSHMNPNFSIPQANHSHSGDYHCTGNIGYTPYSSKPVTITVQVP
Method: as §1

[12] = biological target: T9, human FcγRIIIaV extracellular domain, His-tagged (human, UniProt P08637 17-208); assay: as above
T9 construct: also called human FcγRIIIa (V158); FcgRIIIaV
Method: as §1

[13] = biological target: T10, cynomolgus monkey FcγRIIa3 extracellular domain with C-terminal His-tag (cynomolgus monkey); assay: SPR (Biacore), KD of SG1 / KD of variant
T10 construct: also called cyno FcgRIIa3; cynoFcγRIIa3
T10 chain: T5 chain with K127I, N130K, H133P, Q142R

[14] = biological target: T1, human FcγRIIaR extracellular domain …; assay: SPR (Biacore), KD of SG1 / KD of variant

T4 sequence (P08637 17-208 F176V): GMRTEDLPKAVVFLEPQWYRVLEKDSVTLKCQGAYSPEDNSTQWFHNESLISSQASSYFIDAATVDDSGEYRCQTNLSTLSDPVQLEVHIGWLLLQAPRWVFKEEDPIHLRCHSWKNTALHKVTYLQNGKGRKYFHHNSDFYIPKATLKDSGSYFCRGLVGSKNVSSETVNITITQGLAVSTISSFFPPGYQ
T9 sequence (P08637 17-208 F176V): as above

B1: M103205H795-MY441/M103202L889-SK1 (antibody, human IgG1, kappa)
heavy: QVTLKESGPVLVKPTETLTLTCTVSGIDLSHDDISWVRQAPGKGLEWVGIISYAGSTYYASWAKGRLTISKDTSKNQVVLTMTNMDPVDTATYYCARGVPAYSHGGDLWGQGTLVTVSSASTKGPSVFPLAPSSKSTSGGTAALGCLVKDYFPEPVTVSWNSGALTSGVHTFPAVLQSSGLYSLSSVVTVPSSSLGTQTYICNVNHKPSNTKVDKKVEPKSCDKTHTCPPCPAAELLTGPSVFLFPPKPKDTLMISRTPEVTCVVVDVSDEDPEVKFNWYVDGVEVHNAKTKPREEQYNSTYRVVSVLTVLHQDWLNGKEYKCKVSNKALPKPIEKTISKAKGQPREPQVYTLPPSREEMTKNQVSLTCLVKGFYPSDIAVEWESNGQPENNYKTTPPVLDSDGSFFLYSKLTVDKSRWQQGNVFSCSVMHEALHNHYTQKSLSLSP
light: DIVMTQSPATLSLSPGERATLSCTSSQSVYHANWLSWFQQKPGQPPKLLIYWASTLAYGVPSRFSGSGSGTDFTLTISSLQPEDAATYYCAGGYGGGRYAFGQGTKVEIKRTVAAPSVFIFPPSDEQLKSGTASVVCLLNNFYPREAKVQWKVDNALQSGNSQESVTEQDSKDSTYSLSSTLTLSKADYEKHKVYACEVTHQGLSSPVTKSFNRGEC
notes: Substitutions in EU numbering on SG1
Kd [1]: 0.6 µM | KD fold (SG1 = 1) [2]: 0.2 fold

B2: M103205H795-MY460/M103202L889-SK1 (antibody)
chain 1: B1 heavy with A233E, A234P
chain 2: B1 light
KD fold (SG1 = 1) [2]: 0.2 fold

B3: M103205H795-MY459/M103202L889-SK1 (antibody)
heavy: B1 heavy with A233D, A234P
light: B1 light
notes: as for B1
KD fold (SG1 = 1) [2]: 0.2 fold | KD fold (SG1 = 1) [3]: 1.6 fold

B4: M103205H795-MY466/M103202L889-SK1 (antibody)
heavy: B1 heavy with A233L, A234P
light: B1 light
notes: as for B1
Kd [4]: 4.6 µM | Kd [1]: 0.26 µM | KD fold (SG1 = 1) [5]: 0.2 fold | KD fold (SG1 = 1) [6]: 2.8 fold

B5: M103205H795-MY458/M103202L889-SK1 (antibody, human IgG1, kappa)
heavy: B1 heavy with A234Y
light: B1 light
notes: as for B1
Kd [7]: 1.9 µM

B6: M103205H795-MY457/M103202L889-SK1 (antibody, human IgG1, kappa, name in EU numbering)
heavy: B1 heavy with A234W
light: B1 light
KD fold (SG1 = 1) [8]: 5.6 fold

B7: M103205H795-MY455/M103202L889-SK1 (antibody, human IgG1, kappa, name in EU numbering)
heavy: B1 heavy with A234T
light: B1 light
KD fold (SG1 = 1) [9]: 0.2 fold | KD fold (SG1 = 1) [8]: 2.7 fold

B8: M103205H795-MY449/M103202L889-SK1 (antibody, human IgG1, kappa)
heavy: B1 heavy with A234L
light: B1 light
notes: as for B1
Kd [10]: 0.098 µM

B9: M103205H795-MY453/M103202L889-SK1 (antibody, human IgG1, kappa, name in EU numbering)
heavy: B1 heavy with A234R
light: B1 light
KD fold (SG1 = 1) [11]: 0.9 fold | KD fold (SG1 = 1) [9]: 0.2 fold | KD fold (SG1 = 1) [12]: 0.2 fold

B10: M103205H795-MY443/M103202L889-SK1 (antibody, human IgG1, kappa)
heavy: B1 heavy with A234E
light: B1 light
notes: as for B1
KD fold (SG1 = 1) [13]: 1.5 fold | KD fold (SG1 = 1) [2]: 0.2 fold | KD fold (SG1 = 1) [3]: 1.5 fold

B11: M103205H795-MY449/M103202L889-SK1 (antibody, human IgG1, kappa, name in EU numbering)
heavy: B1 heavy with A234L
light: B1 light
KD fold (SG1 = 1) [12]: 0.2 fold

B12: M103205H795-MY454/M103202L889-SK1 (antibody, human IgG1, kappa, name in EU numbering)
heavy: B1 heavy with A234S
light: B1 light
KD fold (SG1 = 1) [11]: 1.8 fold | KD fold (SG1 = 1) [9]: 0.2 fold | KD fold (SG1 = 1) [12]: 0.2 fold

B13: M103205H795-MY452/M103202L889-SK1 (antibody, human IgG1, kappa, name in EU numbering)
heavy: B1 heavy with A234Q
light: B1 light
KD fold (SG1 = 1) [9]: 0.2 fold | KD fold (SG1 = 1) [8]: 2.9 fold

B14: M103205H795-MY454/M103202L889-SK1 (antibody, human IgG1, kappa)
heavy: B1 heavy with A234S
light: B1 light
notes: as for B1
Kd [7]: 2.8 µM | KD fold (SG1 = 1) [13]: 2.2 fold | KD fold (SG1 = 1) [6]: 1.8 fold

B15: M103205H795-MY444/M103202L889-SK1 (antibody, human IgG1, kappa)
heavy: B1 heavy with A234F
light: B1 light
notes: as for B1
KD fold (SG1 = 1) [5]: 0.2 fold | KD fold (SG1 = 1) [13]: 8.9 fold | KD fold (SG1 = 1) [14]: 7.5 fold | KD fold (SG1 = 1) [3]: 6.5 fold
